{
  "source": "patent US20180155451A1",
  "about": "(published 2018)",
  "experiment_in_all_cases": "SPR (Biacore), antibody captured on chip, FcgR extracellular domain as analyte",
  "key": {"FcgRIIb": {"molecular_target": "T1, FcgRIIb (human, UniProt P31994 43-217)", "T1 construct": "extracellular domain; Expressed in FreeStyle293 cells and purified; used as analyte in Biacore; also called FcγRIIb; CD32B; not shown: His tag attached to the C terminus", "T1 sequence (looked up)": "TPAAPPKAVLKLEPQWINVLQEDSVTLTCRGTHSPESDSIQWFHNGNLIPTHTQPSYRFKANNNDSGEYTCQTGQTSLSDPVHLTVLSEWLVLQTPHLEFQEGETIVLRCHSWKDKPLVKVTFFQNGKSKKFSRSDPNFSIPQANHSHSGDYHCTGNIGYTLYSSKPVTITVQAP", "method": "(§1) Specifically, H240-Kn120 (SEQ ID NO: 99) resulting from introduction of S239M into H240-Kn067 and H240-Kn126 (SEQ ID NO: 100) resulting from introduction of Y235Q into H240-Kn120 were prepared according to the method described in Reference Example 1. […] Those described above were assayed for the binding to each FcgR according to the method described in Reference Example 8.\n(§2) Analysis of interaction between obj ective antibody and the FcγR was carried out using Biacore T100 (GE Healthcare), Biacore T200, Biacore A100, and Biacore 4000. HBS-EP+ (GE Healthcare) was used as the running buffer, and the measurement temperature was set to 25° C. Chips produced by immobilizing the antigen peptide by the amine coupling method to a Series S sensor Chip CM5 (GE Healthcare), chips produced by allowing preliminarily biotinylated antigen peptides to interact with and immobilize onto a Series S Sensor Chip SA (certified) (GE Healthcare), chips produced by immobilizing Protein L (ACTIGEN, BioVision) to Series S Sencor Chip CM5 (GE Healthcare), or chips produced by immobilizing Protein A/G (Thermo Scientific) to Series S Sencor Chip CM5 (GE Healthcare) were used. Antibodies of interest were captured onto these chips, and allowed to interact to each FcγR diluted with running buffer. To regenerate and repeatedly use the chip, the antibodies captured onto the chip were washed off by reacting 10 mM glycine-HCl, pH 1.5."}, "FcgRIIIa V [1]": {"molecular_target": "T2, FcgRIIIa V (human, UniProt P08637 17-208)", "T2 construct": "extracellular domain; also called FcγRIIIa V; not shown: His tag attached to the C terminus", "T2 sequence (P08637 17-208 F176V limits assumed)": "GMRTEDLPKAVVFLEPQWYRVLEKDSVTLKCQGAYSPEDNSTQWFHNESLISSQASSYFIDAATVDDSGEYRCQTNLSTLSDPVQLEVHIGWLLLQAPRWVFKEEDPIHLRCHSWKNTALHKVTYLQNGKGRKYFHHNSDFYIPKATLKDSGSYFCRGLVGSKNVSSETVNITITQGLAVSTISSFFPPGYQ", "method": "as §1, §2"}, "FcgRIIa H": {"molecular_target": "T3, FcgRIIa H (human, UniProt P12318 34-217)", "T3 construct": "extracellular domain; also called FcγRIIa H; FcγRIIa type H; not shown: His tag attached to the C terminus", "T3 sequence (looked up)": "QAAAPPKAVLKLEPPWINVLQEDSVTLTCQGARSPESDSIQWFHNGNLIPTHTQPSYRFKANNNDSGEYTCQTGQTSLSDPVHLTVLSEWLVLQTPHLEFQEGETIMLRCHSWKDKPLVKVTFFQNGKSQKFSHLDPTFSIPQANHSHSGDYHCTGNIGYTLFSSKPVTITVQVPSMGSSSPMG", "method": "as §1, §2"}, "FcgRIIIa F": {"molecular_target": "T4, FcgRIIIa F (human, UniProt P08637 17-208)", "T4 construct": "extracellular domain; also called FcγRIIIa F; not shown: His tag attached to the C terminus", "T4 sequence (P08637 17-208)": "as the sequence (P08637 17-208 F176V limits assumed) above, with V160F counted along it", "method": "as §1, §2"}, "FcgRIa": {"molecular_target": "T5, FcgRIa (human, UniProt P12314 16-292)", "T5 construct": "extracellular domain; Expressed in FreeStyle293 cells and purified; used as analyte in Biacore; also called FcγRIa; FcγRI; not shown: His tag attached to the C terminus", "T5 sequence (P12314 16-292)": "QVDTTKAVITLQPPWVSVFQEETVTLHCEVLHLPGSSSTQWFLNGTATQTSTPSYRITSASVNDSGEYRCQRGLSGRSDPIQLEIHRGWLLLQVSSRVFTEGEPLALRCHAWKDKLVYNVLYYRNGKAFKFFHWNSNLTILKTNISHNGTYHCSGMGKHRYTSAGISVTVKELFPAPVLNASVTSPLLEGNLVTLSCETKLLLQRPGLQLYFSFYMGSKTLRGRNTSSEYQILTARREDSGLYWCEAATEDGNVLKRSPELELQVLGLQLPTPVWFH", "method": "as §1, §2"}, "FcgRIIa R": {"molecular_target": "T6, FcgRIIa R (human, UniProt P12318 34-217)", "T6 construct": "extracellular domain; also called FcγRIIa R; FcγRIIa type R; not shown: His tag attached to the C terminus", "T6 sequence (looked up)": "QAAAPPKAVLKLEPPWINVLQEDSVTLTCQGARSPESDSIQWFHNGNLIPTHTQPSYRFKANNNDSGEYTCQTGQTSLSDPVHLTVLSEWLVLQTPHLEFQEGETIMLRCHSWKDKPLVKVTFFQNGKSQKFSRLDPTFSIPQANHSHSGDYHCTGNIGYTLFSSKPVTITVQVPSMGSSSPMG", "method": "as §1, §2"}, "FcgRIIIa V [2]": {"molecular_target": "T2, FcgRIIIa V", "remark": "listed apart in the source"}},
  "note": "Where two headings read alike, the source gives them in different places.",
  "data": [
    {"binder": "H240-afucosyl_G1d/L73-k0 (antibody, human IgG1, kappa, fucose removed from the sugar chain (afucosylated); amino acid sequence same as H240-G1d, Anti-EREG IgG1 obtained by afucosylating H240-G1d/L73-k0; also called afucosylated antibody) heavy: not shown light: DIQMTQSPSSLSASVGDRVTITCRASQDIHKYIAWYQQKPGQAPRLLIQYTSTLQPGVPSRFSGSGSGTDYTFTISSLQPEDIATYYCLQYEQLRTFGGGTKVEIKRTVAAPSVFIFPPSDEQLKSGTASVVCLLNNFYPREAKVQWKVDNALQSGNSQESVTEQDSKDSTYSLSSTLTLSKADYEKHKVYACEVTHQGLSSPVTKSFNRGEC", "values": [
      {"measurement": "Kd", "setting": "FcgRIIb", "result": 2600, "unit": "nM"},
      {"measurement": "Kd", "setting": "FcgRIIIa V [1]", "result": 6.9, "unit": "nM"},
      {"measurement": "Kd", "setting": "FcgRIIa H", "result": 780, "unit": "nM"},
      {"measurement": "Kd", "setting": "FcgRIIIa F", "result": 79, "unit": "nM"},
      {"measurement": "Kd", "setting": "FcgRIa", "result": 0.43, "unit": "nM"},
      {"measurement": "Kd", "setting": "FcgRIIa R", "result": 490, "unit": "nM"},
      {"measurement": "Kd", "setting": "FcgRIIIa V [2]", "result": 6.9, "unit": "nM"}
    ]}
  ]
}
